± gives the uncertainty stated by the source.

To fix the notation:
B1: Peroxisome proliferator-activated receptor delta, residues 71 to 145; numbered along this chain, Q03181 (parent)
chain: NMECRVCGDKASGFHYGVHACEGCKGFFRRTIRMKLEYEKCERSCKIQKKNRNKCQYCRFQKCLALGMSHNAIRF

The variants in this data set derive from B1. As to the kind of experiment: abundance fitness (aPCA) (normalised: wild type 0, dead -1); higher = more abundant; growth selection in yeast, the domain comes from the species named. The settings on record: Homo sapiens.
For the variant R33H, the abundance fitness was -0.091 ± 0.098.

Turning to R33G, the abundance fitness is -0.038 ± 0.039.

Turning to E22H, the abundance fitness was -0.385 ± 0.099.

Regarding E22W, the abundance fitness is -0.425 ± 0.095.

Turning to E22K, the abundance fitness is -0.297 ± 0.065.

For E22C, the abundance fitness was -0.258 ± 0.076.

On to E22A, for which the abundance fitness is -0.256 ± 0.045.

As to E22D, the abundance fitness is -0.148 ± 0.074.

Turning to E22Y, the abundance fitness was -0.389 ± 0.099.

As for E22S, the abundance fitness is -0.405 ± 0.052.

Turning to N71A, the abundance fitness is -0.036 ± 0.045.

Consider N71F, for which the abundance fitness is -0.477 ± 0.11.

On to N71P, for which the abundance fitness was determined as 0.095 ± 0.047.

As for N71M, the abundance fitness is -0.394 ± 0.081.

For N71V, the abundance fitness is -0.31 ± 0.046.

Consider Y38S, for which the abundance fitness is -0.868 ± 0.1.

Regarding Y38K, the abundance fitness is -0.776 ± 0.14.

Regarding Y38T, the abundance fitness is -0.607 ± 0.099.

As for M34T, the abundance fitness is -0.36 ± 0.077.

For the variant M34A, the abundance fitness was -0.112 ± 0.049.

On to M34I, for which the abundance fitness was -0.817 ± 0.22.

Turning to M34Q, the abundance fitness was 0.136 ± 0.056.

Regarding K62D, the abundance fitness is -0.671 ± 0.15.

For K62F, the abundance fitness was -0.418 ± 0.13.

For the variant K62A, the abundance fitness was -0.056 ± 0.046.

For K62W, the abundance fitness is -0.646 ± 0.092.

For K62Y, the abundance fitness is -0.441 ± 0.13.

Take K62H: the abundance fitness is -0.522 ± 0.14.

Consider F60T, for which the abundance fitness is -0.549 ± 0.1.

Turning to F60D, the abundance fitness is -0.633 ± 0.19.

F60L: the abundance fitness was -0.027 ± 0.039.

For C58A, the abundance fitness is -0.688 ± 0.078.

For C58N, the abundance fitness was -1.09 ± 0.34.

Consider R43E, for which the abundance fitness is 0.013 ± 0.05.

As for R43K, the abundance fitness came out at 0.078 ± 0.051.

As to R43D, the abundance fitness was -0.149 ± 0.075.

In the case of R43S, the abundance fitness is -0.045 ± 0.043.

Turning to R43W, the abundance fitness is -0.252 ± 0.049.

Turning to Y57G, the abundance fitness is -0.746 ± 0.085.

Y57C: the abundance fitness was -0.305 ± 0.13.

On to Y57Q, for which the abundance fitness is -0.862 ± 0.17.

Turning to K40W, the abundance fitness is -0.348 ± 0.058.

K40I: the abundance fitness was found to be 0.061 ± 0.089.

As to K40D, the abundance fitness was -0.408 ± 0.1.

As for K40Y, the abundance fitness was -0.088 ± 0.081.

With K40F, the abundance fitness turned out to be 0.02 ± 0.073.

Regarding K40T, the abundance fitness is -0.154 ± 0.048.

As for D9L, the abundance fitness is -0.63 ± 0.072.

As for D9R, the abundance fitness was -0.348 ± 0.045.

Turning to D9N, the abundance fitness was -0.152 ± 0.064.

Turning to D9Q, the abundance fitness was -0.374 ± 0.077.

With D9F, the abundance fitness is -0.283 ± 0.082.

Turning to C55R, the abundance fitness is -0.868 ± 0.076.

Take C55H: the abundance fitness was -0.441 ± 0.29.

For C55S, the abundance fitness was -0.823 ± 0.12.

Consider C55G, for which the abundance fitness is -0.807 ± 0.057.

On to C55L, for which the abundance fitness is -0.98 ± 0.13.

With C55Y, the abundance fitness is -0.676 ± 0.32.

As for C55P, the abundance fitness was -0.864 ± 0.34.

As to C55M, the abundance fitness is -0.827 ± 0.17.

Consider G13D, for which the abundance fitness was -0.103 ± 0.056.

With G13E, the abundance fitness was -0.274 ± 0.052.

G13N: the abundance fitness was -0.01 ± 0.069.

Regarding G13W, the abundance fitness was -0.708 ± 0.097.

Regarding H15T, the abundance fitness was -0.174 ± 0.047.

On to H15A, for which the abundance fitness is -0.116 ± 0.042.

In the case of H15C, the abundance fitness was -0.044 ± 0.066.

With H15S, the abundance fitness was -0.117 ± 0.041.

H15D: the abundance fitness was -0.027 ± 0.05.

H15K: the abundance fitness was -0.61 ± 0.11.

For G67P, the abundance fitness is -0.562 ± 0.13.

For the variant G67Y, the abundance fitness is -0.854 ± 0.23.

Take G67R: the abundance fitness was -0.584 ± 0.052.

Consider G67T, for which the abundance fitness is -0.687 ± 0.12.

On to G67D, for which the abundance fitness was -0.441 ± 0.11.

On to Y16T, for which the abundance fitness was -0.32 ± 0.059.

As for Y16E, the abundance fitness was -0.023 ± 0.047.

For the variant Y16K, the abundance fitness was -0.356 ± 0.086.

Consider Y16W, for which the abundance fitness is -0.27 ± 0.062.

Regarding Y16R, the abundance fitness was -0.533 ± 0.057.

As for Y16Q, the abundance fitness is -0.034 ± 0.057.

Take K25Y: the abundance fitness worked out at 0.114 ± 0.065.

Take K25C: the abundance fitness was -0.014 ± 0.057.

K25S: the abundance fitness is 0.105 ± 0.038.

Turning to K25T, the abundance fitness amounted to 0.094 ± 0.041.

Regarding K25L, the abundance fitness stood at 0.112 ± 0.033.

G26Y: the abundance fitness is 0.084 ± 0.06.

G26E: the abundance fitness amounted to 0.127 ± 0.046.

Regarding G26V, the abundance fitness was -0.004 ± 0.039.

Take G26R: the abundance fitness is -0.099 ± 0.036.

On to G26M, for which the abundance fitness was -0.09 ± 0.061.

A11G: the abundance fitness was -0.232 ± 0.036.

In the case of A11C, the abundance fitness was -0.367 ± 0.075.

As for A11L, the abundance fitness was -0.338 ± 0.048.

With A11W, the abundance fitness was -0.706 ± 0.092.

With A11F, the abundance fitness was -0.228 ± 0.085.

Take A11T: the abundance fitness is -0.147 ± 0.052.

Consider A11H, for which the abundance fitness is -0.218 ± 0.1.

In the case of A11R, the abundance fitness was -0.485 ± 0.049.

For S69Q, the abundance fitness is 0.088 ± 0.058.

Take S69A: the abundance fitness was -0.007 ± 0.045.

S69R: the abundance fitness was -0.162 ± 0.042.

As to R59Y, the abundance fitness turned out to be 0.107 ± 0.066.

In the case of R59C, the abundance fitness was -0.442 ± 0.1.

In the case of C24Y, the abundance fitness is -0.747 ± 0.22.

As to C24D, the abundance fitness is -0.306 ± 0.11.

Take C24Q: the abundance fitness was -0.912 ± 0.2.

Turning to C24V, the abundance fitness was -1.06 ± 0.17.

On to C24T, for which the abundance fitness is -0.723 ± 0.11.

Turning to C24S, the abundance fitness is -0.809 ± 0.098.

Regarding C24M, the abundance fitness was -0.648 ± 0.14.

Regarding I32N, the abundance fitness was -0.617 ± 0.2.

For I32M, the abundance fitness was -0.142 ± 0.061.

For I32C, the abundance fitness is -0.234 ± 0.091.

Turning to K50F, the abundance fitness amounted to 0.07 ± 0.17.

In the case of K50S, the abundance fitness is -0.046 ± 0.048.

As for K50W, the abundance fitness is -0.056 ± 0.042.

Take K50N: the abundance fitness turned out to be 0.147 ± 0.085.

Take K50A: the abundance fitness was 0.06 ± 0.036.

With K50Q, the abundance fitness was 0.077 ± 0.056.

On to C7Y, for which the abundance fitness was -0.673 ± 0.14.

With C7L, the abundance fitness is -0.782 ± 0.089.

For C7H, the abundance fitness was -0.21 ± 0.14.

For the variant C7N, the abundance fitness is -0.412 ± 0.11.

Turning to C7A, the abundance fitness is -0.66 ± 0.11.

As to C7D, the abundance fitness was -0.952 ± 0.34.

Regarding C7F, the abundance fitness was -0.867 ± 0.25.

Turning to K35M, the abundance fitness is -0.079 ± 0.06.

For K35L, the abundance fitness is -0.495 ± 0.061.

Regarding K35A, the abundance fitness was -0.054 ± 0.042.

For K35V, the abundance fitness is -0.33 ± 0.059.

K35T: the abundance fitness is -0.272 ± 0.055.

Turning to K35N, the abundance fitness is 0.04 ± 0.062.

For K35R, the abundance fitness is -0.026 ± 0.036.

For the variant N1D, the abundance fitness is -0.049 ± 0.066.

Consider N1P, for which the abundance fitness was -0.475 ± 0.21.

M2F: the abundance fitness was -0.432 ± 0.39.

M2D: the abundance fitness was -0.056 ± 0.079.

On to M2P, for which the abundance fitness is -0.58 ± 0.11.

With M2N, the abundance fitness is -0.21 ± 0.09.

Turning to K54W, the abundance fitness was -0.036 ± 0.047.

Turning to R74A, the abundance fitness turned out to be 0.079 ± 0.05.

On to R74Y, for which the abundance fitness was -0.081 ± 0.14.

With R74C, the abundance fitness is -0.141 ± 0.099.

As to R74V, the abundance fitness was -0.013 ± 0.061.

Turning to F14Q, the abundance fitness was -0.064 ± 0.056.

For F14V, the abundance fitness worked out at 0.018 ± 0.037.

On to F14N, for which the abundance fitness was -0.066 ± 0.067.

Turning to F14E, the abundance fitness came to 0.066 ± 0.042.

Take F14A: the abundance fitness was -0.028 ± 0.039.

For F14T, the abundance fitness came out at 0.066 ± 0.042.

For the variant C63F, the abundance fitness was -0.403 ± 0.095.

For C63R, the abundance fitness was -0.508 ± 0.054.

As for C63E, the abundance fitness is -0.689 ± 0.13.

As to C63Q, the abundance fitness was -0.698 ± 0.11.

N53A: the abundance fitness was -0.086 ± 0.041.

Consider N53G, for which the abundance fitness was -0.033 ± 0.035.

For the variant N53F, the abundance fitness is -0.083 ± 0.092.

Turning to N53L, the abundance fitness was -0.217 ± 0.044.

Take N53R: the abundance fitness is -0.185 ± 0.037.

Regarding L64T, the abundance fitness is -0.288 ± 0.065.

Turning to L64H, the abundance fitness is -0.274 ± 0.1.

Regarding L64N, the abundance fitness is -0.906 ± 0.21.

Regarding L64M, the abundance fitness was -0.188 ± 0.058.

As to G17F, the abundance fitness was -0.661 ± 0.16.

As to G17S, the abundance fitness was -0.448 ± 0.056.

On to G17T, for which the abundance fitness was -0.567 ± 0.077.

These data come from the Human Domainome abundance scans (Beltran et al. 2025).
